Data on 38 sequences can be found in the supplement of paper PMC7877785.

± gives the uncertainty stated by the source.

The nature of the data set: self-splicing fitness, log relative to wild type (ln ratio); higher = more splicing; Tetrahymena group I intron in knt gene, E. coli kanamycin selection, DiMSum; sequences stand for … in CUCUCU…GGAGGGAAAAGUUAUCAGGCAUGCACCUGGUAGCUAGUCUUUAAACCAAUAGAUUGCAUCGGUUUAAAAGGCAAGACCGUCAAAUUGCGGGAAAGGGGUCAACAGCCGUUCAGUACCAAGUCUCAGGGGAAACUUUGAGAUGGCCUUGCAAAGGGUAUGGUAAUAAGCUGACGGACAUGGUCCUAACCACGCAGCCAAGUCCUAAGUCAACAGAUCUUCUGUUGAUAUGGAUGCAGUUCACAGACUAAAUGUCGGUCGGGGAAGAUGUAUUCUUCUCAUAAGAUAUAGUCGGACCUCUCCUUAAUGGGAGCUAGCGGAUGAAGUGAUGCAACACUGGAGCCGCUGGGAACUAAUUUGUAUGCGAAAGUAUAUUGAUUAGUUUUGGAGUACUCGUGGUCG
In outline: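 Colonies from six replicate transformations of E. coli BL21(DE3) were pooled and amplicon-sequenced on an Illumina HiSeq 2500. The library placed an intron with all eight P1ex-region nucleotides randomised inside the knt kanamycin-resistance gene on pET-22b(+), and cells grew overnight at 37°C or 30°C on LB agar with or without 25 μg/mL kanamycin (plus 100 μg/mL carbenicillin, 50 μM IPTG, 0.2% rhamnose). Fitness is the DiMSum error-weighted combination of wild-type-normalised replicate fold changes, kanamycin versus none.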

As to UGAAAGCAAUAUUACGGUAC, the “self-splicing fitness (ln)” value is -3.27 ± 0.32 (30 °C) and -2.07 ± 0.24 (37 °C).
On to GUAUAGCAAUAUUACGGGGA, for which the “self-splicing fitness (ln)” value runs as follows: (30 °C) -2.52 ± 0.22; (37 °C) -2.83 ± 0.38.
As for UGCUAGCAAUAUUACGUUAG, the “self-splicing fitness (ln)” value by setting is: (30 °C) -3.08 ± 0.19; (37 °C) -3.02 ± 0.33.
On the same counts, the results for AACAAGCAAUAUUACGAAGU are -2.46 ± 0.085 and -1.29 ± 0.099.
GAUUAGCAAUAUUACGCAGG: the “self-splicing fitness (ln)” value (37 °C) was -0.28 ± 0.27.
In the case of CCCUAGCAAUAUUACGUGAC, the “self-splicing fitness (ln)” value is -2.85 ± 0.15 (30 °C) and -2.29 ± 0.34 (37 °C).
The corresponding values for UACAAGCAAUAUUACGACUU are -1.19 ± 0.081 and -0.692 ± 0.097.
The corresponding values for UGUUAGCAAUAUUACGAAGU are -3.08 ± 0.13 and -2.76 ± 0.19.
On the same counts, the results for AACUAGCAAUAUUACGGAGU are -2.95 ± 0.13 and -1.42 ± 0.13.
On to AUCAAGCAAUAUUACGAUAC, for which the “self-splicing fitness (ln)” value runs as follows: (30 °C) -4.68 ± 0.39; (37 °C) -2.17 ± 0.26.
On the same counts, the results for AUACAGCAAUAUUACGCUCA are -0.776 ± 0.069 and 0.318 ± 0.086.
On the same counts, the results for UGUAAGCAAUAUUACGAAAG are -3.6 ± 0.25 and -2.75 ± 0.34.
ACUUAGCAAUAUUACGAAAU: the “self-splicing fitness (ln)” value was -3.03 ± 0.23 (30 °C) and -1.23 ± 0.2 (37 °C).
The corresponding values for UCCGAGCAAUAUUACGUGAA are -3.29 ± 0.17 and -1.16 ± 0.15.
The corresponding values for CGUAAGCAAUAUUACGCUCA are -1.2 ± 0.2 and -0.106 ± 0.18.
The corresponding values for AAACAGCAAUAUUACGACCC are -0.763 ± 0.11 and 0.302 ± 0.13.
As to UCGUAGCAAUAUUACGGCGA, the “self-splicing fitness (ln)” value reads like this: (30 °C) -1.85 ± 0.37; (37 °C) -0.98 ± 0.2.
The corresponding values for AUCAAGCAAUAUUACGCCCC are -1.45 ± 0.3 and 0.787 ± 0.27.
On the same counts, the results for GGCGAGCAAUAUUACGAUAA are -1.64 ± 0.13 and -0.294 ± 0.15.
The corresponding values for CAGAAGCAAUAUUACGAAUU are -3.5 ± 0.2 and -2.05 ± 0.27.
For the sequence UAUUAGCAAUAUUACGGUCG, the “self-splicing fitness (ln)” value (30 °C) was -0.442 ± 0.13 and the “self-splicing fitness (ln)” value (37 °C) was determined as 0.383 ± 0.23.
For AAAGAGCAAUAUUACGUCGG, the “self-splicing fitness (ln)” value runs as follows: (30 °C) -3.89 ± 0.24; (37 °C) -1.71 ± 0.2.
The corresponding values for GACUAGCAAUAUUACGUUGU are -3.19 ± 0.14 and -2.17 ± 0.12.
The corresponding values for AGCCAGCAAUAUUACGCCGU are -2.54 ± 0.12 and -1.76 ± 0.13.
For GCACAGCAAUAUUACGUAUG, the “self-splicing fitness (ln)” value was -2.21 ± 0.073 (30 °C) and -1.52 ± 0.079 (37 °C).
The corresponding values for UCGAAGCAAUAUUACGCCGU are -0.599 ± 0.12 and -0.739 ± 0.12.
On the same counts, the results for CGCAAGCAAUAUUACGUCCG are -0.62 ± 0.12 and 0.53 ± 0.2.
For the sequence GACUAGCAAUAUUACGGCAA, the “self-splicing fitness (ln)” value by setting is: (30 °C) -0.738 ± 0.08; (37 °C) -0.302 ± 0.09.
The corresponding values for AGGAAGCAAUAUUACGUAAG are -1.39 ± 0.11 and -2.01 ± 0.17.
On the same counts, the results for CCGGAGCAAUAUUACGUGCA are -3.1 ± 0.35 and -2.06 ± 0.29.
In the case of ACUUAGCAAUAUUACGCUAG, the “self-splicing fitness (ln)” value runs as follows: (30 °C) -2.35 ± 0.11; (37 °C) -1.72 ± 0.12.
On the same counts, the results for UACUAGCAAUAUUACGAGGA are -3.18 ± 0.2 and -1.54 ± 0.13.
The corresponding values for UGUAAGCAAUAUUACGGGGU are -3.75 ± 0.31 and -2.24 ± 0.28.
As for CGUAAGCAAUAUUACGAUGU, the “self-splicing fitness (ln)” value (37 °C) was -1.57 ± 0.16.
As to CCCUAGCAAUAUUACGGAAA, the “self-splicing fitness (ln)” value by setting is: (30 °C) -3.33 ± 0.27; (37 °C) -1.5 ± 0.24.
On the same counts, the results for CGCGAGCAAUAUUACGUGUG are -4.51 ± 0.24 and -2.68 ± 0.13.
The corresponding values for GGUUAGCAAUAUUACGACUU are -0.187 ± 0.12 and 1.17 ± 0.16.
Consider UUCCAGCAAUAUUACGUUGU, for which the “self-splicing fitness (ln)” value is, setting by setting: (30 °C) -2.93 ± 0.21; (37 °C) -2.74 ± 0.27.
